Data on 3 molecules can be found in US20100330072A1 (published 2010).

The term Kd denotes the concentration at which binding is half-saturated.

Substitutions are numbered along the chain they refer to.

T1: recombinant mature myostatin (human, produced in E. coli) (human, UniProt O14793 267-375)
T1 construct: mature; also called GDF-8
T1 sequence (looked up): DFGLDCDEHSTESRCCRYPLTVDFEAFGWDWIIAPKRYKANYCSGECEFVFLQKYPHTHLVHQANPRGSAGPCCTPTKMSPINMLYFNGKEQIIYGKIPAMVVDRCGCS

B1: 2x mTN8-19-21 peptibody (Fc fusion)
chain: GGGGGAQSEYQGLCTRWPWMCPPQGWKLEGSGSATGGSGSTASSGSGSATGSEYQGLCTRWPWMCPPQGWKLE
notes: Fc dimer
B2: 2x mTN8-19-33 peptibody (Fc fusion)
chain: B1 chain with S8P, Y10S, L13H, K27G, S52P, Y54S, L57H, K71G
notes: Fc dimer; also called 2×mTN8-19-33
B3: 2x mTN8-19-7 peptibody (Fc fusion)
chain: GGGGGAQLADHGQCIRWPWMCPPEGWELEGSGSATGGSGSTASSGSGSATGLADHGQCIRWPWMCPPEGWELE
notes: Fc dimer; also called 2×mTN8-19-7

The target of the assay is T1, recombinant mature myostatin (human, …). Put plainly: KinExA solution equilibrium assay or BIAcore (table does not say which). On the technique in general: Kinetic exclusion samples the free partner from a solution-phase mixture.
For the molecule B1, the Kd is 6 pM.

In the case of B2, the Kd was determined as 3 pM. Under B3 stands 12 pM.
